For experiment [1], the target named is T1, human recombinant adrenomedullin receptor (CRLR + RAMP3) (human). The experiment can be described thus: cell-based or functional assay.
The target in experiment [2] is T1, human recombinant adrenomedullin …. The experiment can be described thus: cell-based or functional assay. This is another data set of the same source.

Where two headings read alike, the source gives them in different places. No end group written: not given here.

T1 sequence (Q16602 whole entry, chain 1 of 2): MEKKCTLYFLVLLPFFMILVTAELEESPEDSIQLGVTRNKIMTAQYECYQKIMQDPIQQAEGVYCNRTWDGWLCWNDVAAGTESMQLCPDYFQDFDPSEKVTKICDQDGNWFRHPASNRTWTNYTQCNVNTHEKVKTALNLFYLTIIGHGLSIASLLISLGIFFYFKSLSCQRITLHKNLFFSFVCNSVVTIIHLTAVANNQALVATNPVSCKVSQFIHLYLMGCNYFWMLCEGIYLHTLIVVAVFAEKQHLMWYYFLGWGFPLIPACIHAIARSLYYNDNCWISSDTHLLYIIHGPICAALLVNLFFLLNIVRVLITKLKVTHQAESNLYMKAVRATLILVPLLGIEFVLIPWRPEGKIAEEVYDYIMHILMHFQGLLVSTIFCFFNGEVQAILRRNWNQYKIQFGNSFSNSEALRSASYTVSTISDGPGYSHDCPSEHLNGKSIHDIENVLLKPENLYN
T1 sequence (O60896 whole entry, chain 2 of 2, further chain): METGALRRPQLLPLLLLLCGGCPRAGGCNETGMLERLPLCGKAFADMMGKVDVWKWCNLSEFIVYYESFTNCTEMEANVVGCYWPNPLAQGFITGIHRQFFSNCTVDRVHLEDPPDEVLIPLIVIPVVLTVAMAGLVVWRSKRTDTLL

For YRQSMNQGSRSNGCRFGTCTFQKLAHQIYQLTDKDKDGMAPRNKISPQGY-NH2 (ends and bridges not checked) [Murine ADM 1-50], the EC50 (read off the curve) (commonly the concentration that produces a half-maximal response) in experiment [1] was ~90 pM.

B1: mature human Adrenomedullin (Human ADM 1-52) (peptide)
peptide: YRQSMNNFQGLRSFGCRFGTCTVQKLAHQIYQFTDKDKDNVAPRSKISPQGY-NH2
modifications: ends and bridges not checked
B1: the concentration for a half-maximal effect (EC50 (read off the curve)) in experiment [2] is ~1000 pM.
